Results taken from the nanobody polyreactivity screen of Harvey et al. (2022).

Test: yeast display, Sf9 membrane polyspecificity reagent, FACS + sequencing; frameworks hold sequencing errors
Method in brief: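 A synthetic nanobody library was expressed on Saccharomyces cerevisiae BJ5465 by galactose induction for 36–48 hours. The library was stained for 1 hour at 4 °C with 10% biotinylated, detergent-solubilized Sf9 membrane reagent and enriched with streptavidin microbeads before FACS. Low and high (top ~1%) gates were set on anti-HA fluorescence for expression and streptavidin fluorescence for reagent binding, and each polyreactivity label reflects the gate of origin.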
In the case of “QVQLVESGGGLGQAGGSLRLSCAASGSIFSAYAMGWYRPAPGKERELVAGISKRGGSTYYADSVKGRFTISRDNAKNTVYLQMNSLKAEDTAVYYCTAARYTVVTKLFDYWGQGTQVTVSS”, the “polyreactivity (PSR sort gate)” value is reported as “high polyreactivity”. In the case of “QVQLVESGGGLGQAGGSLRLSCAASGSNFRPYAMGWYRPAPGKERELVAAISSSGGSTYYADSVKGRFTISRDNAKNTVYLQMNSLKPEDTAVYYCAAVSRSTWIHSRDYWGQGTQVTVSS”, the “polyreactivity (PSR sort gate)” value is reported as “low polyreactivity”. With “QVQLVESGGGLGQAGGSLRLSCAASGSTFKFYAMGWYRHAPGKERELVATISWTGGSTYYADSVKGRFTISRDNAKNTVYLQTNSLKPEDTAVYYCANRKTSYPVIWYTVNGRHYYWGQGTQVTVSS” the “polyreactivity (PSR sort gate)” value was “low polyreactivity”. In the case of “QVQLVESGGGLGQAGGSLRLSCAASGSTFYLNAMGWYRQATGKERELVAAINSGDSTNYADSVKGRFTISRDNAKNTVYLQMNSLKPEDTAVYYCARDRFPSEGDYWGQGTQVTVSS”, the “polyreactivity (PSR sort gate)” value is reported as “low polyreactivity”. For “QVQLVESGGGLGQAGGSLRLSCAASGSTFYRNAMGWYRPAPGKERELVAAISGSDGSTYYADSVKGRFTISRDNAKNTVYLQMNSLKPEDTAVYYCVVAYARKYYYWGQGTQVTVSS”, the “polyreactivity (PSR sort gate)” value was “high polyreactivity”. For “QVQLVESGGGLGQAGGSLRLSCAASGSTLNYYAMGWYTQAPGKERELVAAITWSGGSTSYADSVKGRFTISRDNAKNTVYLQMNSLKPEDTAVYYCATDFPTVQLYDTDWLSSDMGYWGQGTQVTVSS”, the “polyreactivity (PSR sort gate)” value was “low polyreactivity”. In the case of “QVQLVESGGGLGQAGGSLRLSCAASGYTFGKYAMGWYRPAPGKERELVAAISWSGGSTYYADSVKGRFTISRDNAKNTVYLQMNSLKPEDTAVYYCNIGYIGRYGYWGQGTQVTVSS”, the “polyreactivity (PSR sort gate)” value is reported as “high polyreactivity”. With “QVQLVESGGGLGQAGGSLRLSCADSGRTFYKYAMGWYRQSPGKERDLVAAISGSGGSTFYADSVKGRFTISRDNAKNTVYLQMNSLKPEDTAVYYCAKYLRPRIGYRYYYWVQGTQVTVSS” the “polyreactivity (PSR sort gate)” value was “high polyreactivity”. In the case of “QVQLVESGGGLGQAGGSLRLSSAASGFTFRRNAMGWYRQAPGKERELVAAINVRDGSTYYADSVKGRFTISRDNAKNTVYLQMNSLKPEDTAVYYCAAEFFQGYYWYYYWGQGTQVTVSS”, the “polyreactivity (PSR sort gate)” value is reported as “high polyreactivity”. In the case of “QVQLVESGGGLGQAGGSLRLSTAASGSNFRYNTMGWYRLGPGKERELVAAINISSSSTYYADSLKGRFTISRDNAKNTVYLQMNSLKPEVTAVYYCANRDYVPIATYENDDYWGQGTQVNVSS”, the “polyreactivity (PSR sort gate)” value is reported as “low polyreactivity”. With “QVQLVESGGGLGQAGGSLRVSCAASGGTLYYYAMGWYRQARGKERELVADITNSGSTNYADAVKGRFTISRDNAKNTVYLQMNSLKPEDTAVYSCAAAFSRRYDWGQGTQVTVSS” the “polyreactivity (PSR sort gate)” value was “high polyreactivity”. In the case of “QVQLVESGGGLGQAVGRLRLSCAASGGTFPQYAMGWYRQAPGKEREFVADITSRGGTTYYADSVQGRFTISRDNAKNTVYLQMNSLKPEDTAVYYCAADNPADWWGLDYWGQGTQVTVSS”, the “polyreactivity (PSR sort gate)” value is reported as “low polyreactivity”. For “QVQLVESGGGLLHAGGSLRLSCAASGLIFSDYVMGWYRQAPWKERELVAGITTGGSTKYADSVKWRFTISRDNAKTTVYLQMNSLKPEDTAVYYCAVGKYNYRGSWDYYWGQGTQVTLSS”, the “polyreactivity (PSR sort gate)” value was “high polyreactivity”. With “QVQLVESGGGLLQAGGILRLSCAASGFTFKYYVMGWYRQAPGKERELDAAITSSGSTYYADSVKGRFTISRDNAKNTVYLQINRLKPEDSAVYYCAAEGQSWQRWRYNYWGQGTQVTVSS” the “polyreactivity (PSR sort gate)” value was “high polyreactivity”. For “QVQLVESGGGLLQAGGSLPLSCPASGRIFYSYAMGWYRQAPGKERELVAGINWRGSNTYYADSVKGRFTISRDNAKNTVYFQMNSLKPEDTAVYYCSATYYQERRRGYWGQGSQVTVSS”, the “polyreactivity (PSR sort gate)” value was “high polyreactivity”. For “QVQLVESGGGLLQAGGSLRFSWAASGFIFIINPMGWYRQAPGKERELVAGIRWSGGYKYYADSVKGRFTISRDNEKNTVYLQINSLKPEDTAVYYCNKDRGSLTLYTYDYWGQVTQVTVSS”, the “polyreactivity (PSR sort gate)” value was “low polyreactivity”. In the case of “QVQLVESGGGLLQAGGSLRISCAASGITFVYYVMGWYRQAPRKERELVAGISSGGSTYYADSVKGRFTISRDNAKNTVYLQMISLKPEDTAVYYCNAVDTYGLWRRYNYWGQGTQVTVSS”, the “polyreactivity (PSR sort gate)” value is reported as “high polyreactivity”. With “QVQLVESGGGLLQAGGSLRLICAASGRIFQTYAMGWYRQAPGKERELVARIRLSGGSTYSADSVKGRFTISRDNAKNTGYLQKNSQKPEDTAVYSCAARFSRARFTDPYYYWGQGTQVTVSS” the “polyreactivity (PSR sort gate)” value was “high polyreactivity”. With “QVQLVESGGGLLQAGGSLRLICAASGSIFGANTMGWYRPAPGKERELVAGITSGARTYYADSVKGRFTMSRDNAKNTVYLQMNSLQPEDTAVYYCAANYAWRRYGYWGNGTQVTVSS” the “polyreactivity (PSR sort gate)” value was “high polyreactivity”. For “QVQLVESGGGLLQAGGSLRLSCAASGFIFGRNAMGWYRQAPGKERELVAAITRSGGSTYYADSVKGRFTISRDNAKNTVYLQMISLKTEDTAVYYCAKGDFYWGVFRVGIRDDYWGQGTQVNVSS”, the “polyreactivity (PSR sort gate)” value was “high polyreactivity”. With “QVQLVESGGGLLQAGGSLRLSCAASGFTIQRYAMGWYRQAPGKERELVAAITSGGSTYYADSVKGRFTISRDNAKNTVYLQMNSLKPEDTAVYYCATRAVWSSWGRRYDSWGQGTQVTVSS” the “polyreactivity (PSR sort gate)” value was “high polyreactivity”. With “QVQLVESGGGLLQAGGSLRLSCAASGIIFGRYTMGWYRKAPGKETELVAAITSSGITYYADSVKGRFTISRDNAKNTVYLQMNSLKPEDTAVYYCYADYSIPGYYWPYDYWGQGTQVTVSS” the “polyreactivity (PSR sort gate)” value was “low polyreactivity”. For “QVQLVESGGGLLQAGGSLRLSCAASGRIFIANAMGWNRQAPRKERDLVAAITSDGGTNYADSVKGRFTISRDNAKITVYLQLISLKPEDTAVYYCAATYQIGYYYVWEYDYWGQGTQLTVSS”, the “polyreactivity (PSR sort gate)” value was “low polyreactivity”. With “QVQLVESGGGLLQAGGSLRLSCAASGRIFPYYAMGWYRQAPGKERVLLAAISQSGGRTYYADSVKGRFTISRDNAKNTVFLQMNSLKPEDTAVYYCNADTYSSGYDYWGQGTQVTVSS” the “polyreactivity (PSR sort gate)” value was “high polyreactivity”. For “QVQLVESGGGLLQAGGSLRLSCAASGRIYSIYAMGWYRQAPGKERELVASITGSGGTTYYADSVKGRFTISRDIAKNTVYLQMNSLKPEDTAVYYCAAVFYGFVGYYNEDYWGQGSQVTVSS”, the “polyreactivity (PSR sort gate)” value was “low polyreactivity”. With “QVQLVESGGGLLQAGGSLRLSCAASGRTFLGYAMGWYIQAPGKERELVAAISWDGTSTYYADSLKGRFTISRDNAKNTVYLPMNSLKPEDTAVYYCAAQLTDYQSKTLSYDYWGQGTQVTVSS” the “polyreactivity (PSR sort gate)” value was “low polyreactivity”. For “QVQLVESGGGLLQAGGSLRLSCAASGRTFRAYTMGWYRQAPGKERELVAAISTPGGSTYYADSVKGRFTISRDNAKNTVYLQMNSLKPEDSAVYYCAAGTFYYWLSYDYWGQGTQVTVSS”, the “polyreactivity (PSR sort gate)” value was “low polyreactivity”. In the case of “QVQLVESGGGLLQAGGSLRLSCAASGRTFYHYTMGWYRQAPGKERELVARITRRVGSTYYADSVKGRFTISRDNAKNIVYLQMNSLKPEDTAVYYCNSKSGVYRYLLDYWGQGTQVTVSS”, the “polyreactivity (PSR sort gate)” value is reported as “high polyreactivity”. With “QVQLVESGGGLLQAGGSLRLSCAASGRTIVQNAMGWYRQAPGKERELVASIRYRDGSTYYADSVKGRFTISRDNAKNTVYLQMNSLKTEDTAVYYCAVRYYRKYYYSPFDYWGQGTQVTVSS” the “polyreactivity (PSR sort gate)” value was “high polyreactivity”. In the case of “QVQLVESGGGLLQAGGSLRLSCAASGSIFGDNAMVWYRQAPWKERDLVATISSSDASTYYADSVKGRFTISRDNAKNTVNLQMNSLKPEDTAVYYCAKEVTAGYHVWYDYWGQGTQVTVSS”, the “polyreactivity (PSR sort gate)” value is reported as “low polyreactivity”. With “QVQLVESGGGLLQAGGSLRLSCAASGSIFGQYAMGWYIQAPGKERELVAAISTRGGSTRYADSVKGRFTISRDNAKNTVYLQMNSLKPEDTAVYYCAARVPYIRHLAVDYWGQGTQVTVSS” the “polyreactivity (PSR sort gate)” value was “high polyreactivity”. For “QVQLVESGGGLLQAGGSLRLSCAASGSIFGSYVMGWYRQAPGKERELVAAITASGGSTYYADSVKGRFTISRDTAKNTVYLQMNSLKPEDTAVYYCATKRTWPVGEMYYWGQGTQVTVSS”, the “polyreactivity (PSR sort gate)” value was “high polyreactivity”. With “QVQLVESGGGLLQAGGSLRLSCAASGSIFRRNAMGWYRQAPGKERELVAAIRRGGSTNYADSVKGRFTISRDNAKNTVYLQMNSLKPEDTAVYYCAARGGSSGFYYWGQGTQVTVSS” the “polyreactivity (PSR sort gate)” value was “high polyreactivity”. For “QVQLVESGGGLLQAGGSLRLSCAASGSIFTYYAMGWYRQAPGKEREFVAAINYGGGSTYYADSVKGRFTISRDNAKNTVYLQMNSQKPEDTAVYYCNARTFGPNGKHRYGYWGQGTQVSVSS”, the “polyreactivity (PSR sort gate)” value was “high polyreactivity”. In the case of “QVQLVESGGGLLQAGGSLRLSCAASGSIIFYYAMGWYRQAPGKEREFVAAITRSGVRTYYADSGKGRFTISRDNAKNTVYLQMNSLKPEDNAVYYCHADYGFYRPVLMGYWGQGTQVTVSS”, the “polyreactivity (PSR sort gate)” value is reported as “low polyreactivity”. For “QVQLVESGGGLLQAGGSLRLSCAASGSTFRAYTMGGYRPAPGKVREFVASITRSGGSTNYADSVKGRFTISRDNAKNTVYLQMNSLKPEDTAGYYCAAGYWRIHYQHFRSRDYWGQGTQVTVSS”, the “polyreactivity (PSR sort gate)” value was “high polyreactivity”. In the case of “QVQLVESGGGLLQAGGSLRLSCAASGSTFVTNDMGWYRPAPGKERELVAAISSGSSTNYADSVKGRFTISRDNAKNSVYVHMNSLKPEDTAVYYCAADSLKRYDYWGQGTQVTVSS”, the “polyreactivity (PSR sort gate)” value is reported as “low polyreactivity”. In the case of “QVQLVESGGGLLQAGGSLRLSCAATGFIFWYYAMGWYRQAPGKEREFVADISSGGSTNYADSVKGRFTISRDNAKNTVYLQMNSLKPEDTAVYDCSKDNYPYHSTVLAVIYDYWGHGTQVTVSS”, the “polyreactivity (PSR sort gate)” value is reported as “low polyreactivity”. For “QVQLVESGGGLLQAGGSLRLSCADSGSILYTNAMGWYRQAPGKERELVAASTTSGASTIYADSVKGRFTISRENAKNTVYLQLNSLKPEDTAVYYCAAPSRYRYYLGNYWGQGTQVTVSS”, the “polyreactivity (PSR sort gate)” value was “high polyreactivity”. For “QVQLVESGGGLLQAGGSLRLSCADSGSTFGANSLRWYIQAPGKEREFVAAISGSGTTTYYADSVKGRFTISRDNAKNTFYLQMHRLKPEDTAVYYCDKTRIAHWLEYWGQGTQVTVSS”, the “polyreactivity (PSR sort gate)” value was “low polyreactivity”. In the case of “QVQLVESGGGLLQAGGSLRLSCSASGFIFHYYARGLYRQAPGKDRELVAAIRSGGSTYYADSVKGRFTISRDNAKNTVYLQMNSLKPEHTEVYFCNGRFYSRGYRYYYWGQGTQVTVSS”, the “polyreactivity (PSR sort gate)” value is reported as “high polyreactivity”. In the case of “QVQLVESGGGLLQAGGSLRLTCAASGSIFRYYSMGWYRQAPGKERELVASINSCGSTYYADSVKGRFTISRDNAKNTVYLQMKSLKPEDSAVYYCAAETSFYYRGYWKSYDYWGQGTQVTVSA”, the “polyreactivity (PSR sort gate)” value is reported as “high polyreactivity”. For “QVQLVESGGGLLQAGGSLSLSCAASGGIFYYNAMGRYRQAPRKERELVAANTFSGGSTNYADSVKGRFTISRDNAKNTVYLQMNSLKPEDTAVYYGNARRGYGGGYDYWGQGTQVTVSS”, the “polyreactivity (PSR sort gate)” value was “high polyreactivity”.
